In patent US20230406927A1 (REGENTS OF THE UNIVERSITY OF MINNESOTA, published 2023):

B1: anti-CD3-1DD fusion protein (VHH)
chain: MGHHHHHHEVQLLEEVQLVESGGGLVQPGGSLRLSCAASGFTFDDYGMSWVRQAPGKWLEWVSDISWNGGSTYYADSVKGRFTISRDNAENTLYLQMNSLKPDDTAVYYCAKMGEGGWGANDYWGQGTQVTVSSGGGASGGGGSGGGGSGISLIAALAVDRVIGMENAMPWNLPADLAWFKRNTLNKPVIMGRHTWESIGRPLPGRKNIILSSQPGTDDRVTWVKSVDEAIAAAGDVPEIMVIGGGRVYEQFLPKAQKLYLTHIDAEVEGDTHFPDYEPDDWESVFSEFHDADAQNSHSYSFEILERRGGISLIAALAVDRVIGMENAMPWNLPADLAWFKRNTLNKPVIMGRHTWESIGRPLPGRKNIILSSQPGTDDRVTWVKSVDEAIAAAGDVPEIMVIGGGRVYEQFLPKAQKLYLTHIDAEVEGDTHFPDYEPDDWESVFSEFHDADAQNSHSYSFEILERRGGGLKDYKDDDDK
notes: Anti-CD3 nanobody fused to an E. coli DHFR dimer (1DD); also called αCD3-1DD; anti-CD3-DHFR2 fusion protein
B2: hHINT1-anti-CD3-1DD fusion protein (VHH)
chain: MGHHHHHHMADEIAKAQVARPGGDTIFGKIIRKEIPAKIIFEDDRSLAFHDISPQAPTHFLVIPKKHISQISVAEDDDESLLGHLMIVGKKSAADLGLNKGYRMEVNEGSDGGQSVYHVHLHVLGGRQMHWPPGGGSGGGPLGVRGSGGELEVQLLEEVQLVESGGGLVQPGGSLRLSCAASGFTFDDYGMSWVRQAPGKWLEWVSDISWNGGSTYYADSVKGRFTISRDNAENTLYLQMNSLKPDDTAVYYCAKMGEGGWGANDYWGQGTQVTVSSGGGASGGGGSGGGGSGISLIAALAVDRVIGMENAMPWNLPADLAWFKRNTLNKPVIMGRHTWESIGRPLPGRKNIILSSQPGTDDRVTWVKSVDEAIAAAGDVPEIMVIGGGRVYEQFLPKAQKLYLTHIDAEVEGDTHFPDYEPDDWESVFSEFHDADAQNSHSYSFEILERRGGISLIAALAVDRVIGMENAMPWNLPADLAWFKRNTLNKPVIMGRHTWESIGRPLPGRKNIILSSQPGTDDRVTWVKSVDEAIAAAGDVPEIMVIGGGRVYEQFLPKAQKLYLTHIDAEVEGDTHFPDYEPDDWESVFSEFHDADAQNSHSYSFEILERRGGGLKDYKDDDDK
notes: Masked form; also called hHINT1-αCD3-1DD; HINT1-αCD3-1DD

Experiments:
[1] = molecular target: T1, CD3ε receptor on the surface of T cells (human, UniProt P07766 23-207); experiment: dose-dependent titration by flow cytometry on T cells isolated from healthy donor blood; apparent KD
T1 construct: whole, on cells; The target stood on primary T cells, where CD3ε is part of the TCR/CD3 complex; also called human CD3ε; CD3 epsilon chain
T1 sequence (P07766 23-207): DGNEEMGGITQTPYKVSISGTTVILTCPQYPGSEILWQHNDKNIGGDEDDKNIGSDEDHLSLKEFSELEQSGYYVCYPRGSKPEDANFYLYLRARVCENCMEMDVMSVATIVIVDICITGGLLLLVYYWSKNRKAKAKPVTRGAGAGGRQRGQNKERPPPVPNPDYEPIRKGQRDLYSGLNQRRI
Method: (§1) The apparent affinity of the fusion proteins was determined using flow cytometry with T cells isolated from healthy donor blood.

[2] = molecular target: T1, CD3ε receptor on the surface of T cells; experiment: ratio of apparent KD values from the flow cytometry titration on T cells; reference is unmasked anti-CD3-1DD
Method: as §1

Binder	Kd [1]	fold reduction of binding affinity against anti-CD3-1DD [2]
B1	100 nM	–
B2	> 4000 nM	~40 fold
